Source: publication PMC7367873, “Dissecting the sequence determinants for dephosphorylation by the catalytic subunits of phosphatases PP1 and PP2A” (Nature Communications, 2020)

B1: ZC3H18 (protein, UniProt Q86VM9 1-953, looked up)
Zinc finger CCCH …: MDVAESPERDPHSPEDEEQPQGLSDDDILRDSGSDQDLDGAGVRASDLEDEESAARGPSQEEEDNHSDEEDRASEPKSQDQDSEVNELSRGPTSSPCEEEGDEGEEDRTSDLRDEASSVTRELDEHELDYDEEVPEEPAPAVQEDEAEKAGAEDDEEKGEGTPREEGKAGVQSVGEKESLEAAKEKKKEDDDGEIDDGEIDDDDLEEGEVKDPSDRKVRPRPTCRFFMKGNCTWGMNCRFIHPGVNDKGNYSLITKADPFPPNGAPPLGPHPLMPANPWGGPVVDEILPPPPPEPPTESAWERGLRHAKEVLKKATIRKEQEPDFEEKRFTVTIGEDEREFDKENEVFRDWNSRIPRDVRDTVLEPYADPYYDYEIERFWRGGQYENFRVQYTETEPYHNYRERERERERENRQRERERERERDRERERRQRERERERERERDKERQRRKEEWERERAKRDEKDRQHRDRDREKEREKEKGKPKPRSPQPPSRQAEPPKKEAATTGPQVKRADEWKDPWRRSKSPKKKLGVSVSPSRARRRRKTSASSASASNSSRSSSRSSSYSGSGSSRSRSRSSSYSSYSSRSSRHSSFSGSRSRSRSFSSSPSPSPTPSPHRPSIRTKGEPAPPPGKAGEKSVKKPAPPPAPPQATKTTAPVPEPTKPGDPREARRKERPARTPPRRRTLSGSGSGSGSSYSGSSSRSRSLSVSSVSSVSSATSSSSSAHSVDSEDMYADLASPVSSASSRSPAPAQTRKEKGKSKKEDGVKEEKRKRDSSTQPPKSAKPPAGGKSSQQPSTPQQAPPGQPQQGTFVAHKEIKLTLLNKAADKGSRKRYEPSDKDRQSPPPAKRPNTSPDRGSRDRKSGGRLGSPKPERQRGQNSKAPAAPADRKRQLSPQSKSSSKVTSVPGKASDPGAASTKSGKASTLSRREELLKQLKAVEDAIARKRAKIPGKA
B2: CENPV (protein, UniProt Q7Z7K6 1-275, looked up)
Centromere protein V: MRRSRSSAAAKLRGQKRSGASGASAAPAASAAAALAPSATRTRRSASQAGSKSQAVEKPPSEKPRLRRSSPRAQEEGPGEPPPPELALLPPPPPPPPTPATPTSSASNLDLGEQRERWETFQKRQKLTSEGAAKLLLDTFEYQGLVKHTGGCHCGAVRFEVWASADLHIFDCNCSICKKKQNRHFIVPASRFKLLKGAEHITTYTFNTHKAQHTFCKRCGVQSFYTPRSNPGGFGIAPHCLDEGTVRSMVTEEFNGSDWEKAMKEHKTIKNMSKE
B3: CORO1B (protein, UniProt Q9BR76 1-489, looked up)
Coronin-1B: MSFRKVVRQSKFRHVFGQPVKNDQCYEDIRVSRVTWDSTFCAVNPKFLAVIVEASGGGAFLVLPLSKTGRIDKAYPTVCGHTGPVLDIDWCPHNDEVIASGSEDCTVMVWQIPENGLTSPLTEPVVVLEGHTKRVGIIAWHPTARNVLLSAGCDNVVLIWNVGTAEELYRLDSLHPDLIYNVSWNHNGSLFCSACKDKSVRIIDPRRGTLVAEREKAHEGARPMRAIFLADGKVFTTGFSRMSERQLALWDPENLEEPMALQELDSSNGALLPFYDPDTSVVYVCGKGDSSIRYFEITEEPPYIHFLNTFTSKEPQRGMGSMPKRGLEVSKCEIARFYKLHERKCEPIVMTVPRKSDLFQDDLYPDTAGPEAALEAEEWVSGRDADPILISLREAYVPSKQRDLKISRRNVLSDSRPAMAPGSSHLGAPASTTTAADATPSGSLARAGEAGKLEEVMQELRALRALVKEQGDRICRLEEQLGRMENGDA
B4: ACIN1 (protein, UniProt Q9UKV3 1-1341, looked up)
Apoptotic chromatin …: MWRRKHPRTSGGTRGVLSGNRGVEYGSGRGHLGTFEGRWRKLPKMPEAVGTDPSTSRKMAELEEVTLDGKPLQALRVTDLKAALEQRGLAKSGQKSALVKRLKGALMLENLQKHSTPHAAFQPNSQIGEEMSQNSFIKQYLEKQQELLRQRLEREAREAAELEEASAESEDEMIHPEGVASLLPPDFQSSLERPELELSRHSPRKSSSISEEKGDSDDEKPRKGERRSSRVRQARAAKLSEGSQPAEEEEDQETPSRNLRVRADRNLKTEEEEEEEEEEEEDDEEEEGDDEGQKSREAPILKEFKEEGEEIPRVKPEEMMDERPKTRSQEQEVLERGGRFTRSQEEARKSHLARQQQEKEMKTTSPLEEEEREIKSSQGLKEKSKSPSPPRLTEDRKKASLVALPEQTASEEETPPPLLTKEASSPPPHPQLHSEEEIEPMEGPAPAVLIQLSPPNTDADTRELLVSQHTVQLVGGLSPLSSPSDTKAESPAEKVPEESVLPLVQKSTLADYSAQKDLEPESDRSAQPLPLKIEELALAKGITEECLKQPSLEQKEGRRASHTLLPSHRLKQSADSSSSRSSSSSSSSSRSRSRSPDSSGSRSHSPLRSKQRDVAQARTHANPRGRPKMGSRSTSESRSRSRSRSRSASSNSRKSLSPGVSRDSSTSYTETKDPSSGQEVATPPVPQLQVCEPKERTSTSSSSVQARRLSQPESAEKHVTQRLQPERGSPKKCEAEEAEPPAATQPQTSETQTSHLPESERIHHTVEEKEEVTMDTSENRPENDVPEPPMPIADQVSNDDRPEGSVEDEEKKESSLPKSFKRKISVVSATKGVPAGNSDTEGGQPGRKRRWGASTATTQKKPSISITTESLKSLIPDIKPLAGQEAVVDLHADDSRISEDETERNGDDGTHDKGLKICRTVTQVVPAEGQENGQREEEEEEKEPEAEPPVPPQVSVEVALPPPAEHEVKKVTLGDTLTRRSISQQKSGVSITIDDPVRTAQVPSPPRGKISNIVHISNLVRPFTLGQLKELLGRTGTLVEEAFWIDKIKSHCFVTYSTVEEAVATRTALHGVKWPQSNPKFLCADYAEQDELDYHRGLLVDRPSETKTEEQGIPRPLHPPPPPPVQPPQHPRAEQREQERAVREQWAEREREMERRERTRSEREWDRDKVREGPRSRSRSRDRRRKERAKSKEKKSEKKEKAQEEPPAKLLDDLFRKTKAAPCIYWLPLTDSQIVQKEAERAERAKEREKRRKEQEEEEQKEREKEAERERNRQLEREKRREHSRERDRERERERERDRGDRDRDRERDRERGRERDRRDTKRHSRSRSRSTPVRDRGGRR
B5: EIF2A (protein, UniProt Q9BY44 1-585, looked up)
Eukaryotic translation …: MAPSTPLLTVRGSEGLYMVNGPPHFTESTVFPRESGKNCKVCIFSKDGTLFAWGNGEKVNIISVTNKGLLHSFDLLKAVCLEFSPKNTVLATWQPYTTSKDGTAGIPNLQLYDVKTGTCLKSFIQKKMQNWCPSWSEDETLCARNVNNEVHFFENNNFNTIANKLHLQKINDFVLSPGPQPYKVAVYVPGSKGAPSFVRLYQYPNFAGPHAALANKSFFKADKVTMLWNKKATAVLVIASTDVDKTGASYYGEQTLHYIATNGESAVVQLPKNGPIYDVVWNSSSTEFCAVYGFMPAKATIFNLKCDPVFDFGTGPRNAAYYSPHGHILVLAGFGNLRGQMEVWDVKNYKLISKPVASDSTYFAWCPDGEHILTATCAPRLRVNNGYKIWHYTGSILHKYDVPSNAELWQVSWQPFLDGIFPAKTITYQAVPSEVPNEEPKVATAYRPPALRNKPITNSKLHEEEPPQNMKPQSGNDKPLSKTALKNQRKHEAKKAAKQEARSDKSPDLAPTPAPQSTPRNTVSQSISGDPEIDKKIKNLKKKLKAIEQLKEQAATGKQLEKNQLEKIQKETALLQELEDLELGI

Tests used:
[1] = system: GFP-14-3-3β; assay: GFP-14-3-3β co-IP with LC-MS/MS, untreated GFP-14-3-3β versus GFP control (14-3-3 interactome); type: binding, human
[2] = system: GFP-14-3-3β and its binding proteins; assay: GFP-14-3-3β co-IP with LC-MS/MS label-free quantification, untreated versus PP1c-treated; set-up: species or system human
[3] = untreated vs GFP, LFQ intensities, replicates 1-3
[4] = PP1 vs untreated, LFQ intensities, replicates 1-3

Molecule	Difference (log2), untreated vs GFP [1, 3] [log2]	Difference (log2), PP1 vs untreated [2, 4] [log2]	Difference (log2), untreated vs GFP ([1]; log2 difference, pairwise comparison untreated vs GFP, label-free quantification, 3 replicates each)	Difference (log2), PP1 vs untreated ([2]; log2 difference, pairwise comparison PP1 vs untreated, label-free quantification, 3 replicates each)
B1	1.571	-1.028		
B2	2.895	-0.9888		
B3	0.1576	-1.031		
B4	1.747	-1.001		
B5			-1.244	1.627
